# Measured values reported in the supplement of paper PMC9112550, “Optimization of the antimicrobial peptide Bac7 by deep mutational scanning” (BMC Biology, 2022).
# Tested on: Escherichia coli TOP10
# Test: shrunken log2 fold change of peptide-encoding DNA abundance (4.5 h post-induction vs induction); higher = less antimicrobial activity (less host growth inhibition)
# Conditions: time post-induction: 4.5 h; library: site-saturation at positions 5, 18, 19, 20
# 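Note: peptides expressed intracellularly from a pBAD plasmid library in pooled LB shake-flask culture, induced with 0.3% L-arabinose, DNA abundance read by NGS, three biological replicates, DESeq2 with apeglm shrinkage.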
row,Sequence,shrunken log2 fold change
1,RRIRGRPPRLPRPRPRPSCWPRP,0.413
2,RRIRRRPPRLPRPRPRPFNCPRP,-0.301
3,RRIRIRPPRLPRPRPRPSFEPRP,-0.507
4,RRIRPRPPRLPRPRPRPMCIPRP,-0.0687
5,RRIRRRPPRLPRPRPRPRSNPRP,0.224
6,RRIRSRPPRLPRPRPRPWREPRP,0.0924
7,RRIRRRPPRLPRPRPRPQFYPRP,-0.41
8,RRIRHRPPRLPRPRPRPMWRPRP,0.136
9,RRIRWRPPRLPRPRPRPWVMPRP,-0.129
10,RRIRMRPPRLPRPRPRPIMIPRP,-0.16
11,RRIRARPPRLPRPRPRPEGAPRP,1.37
12,RRIRWRPPRLPRPRPRPEANPRP,1.14
13,RRIRRRPPRLPRPRPRPDELPRP,0.614
14,RRIRSRPPRLPRPRPRPDAYPRP,0.101
15,RRIRKRPPRLPRPRPRPAEIPRP,-0.119
16,RRIRDRPPRLPRPRPRPEKEPRP,0.127
17,RRIRYRPPRLPRPRPRPHSTPRP,-0.181
18,RRIRSRPPRLPRPRPRPERFPRP,0.196
19,RRIRPRPPRLPRPRPRPCPYPRP,-1.08
20,RRIRDRPPRLPRPRPRPLFSPRP,0.0525
21,RRIRKRPPRLPRPRPRPAILPRP,0.0725
22,RRIRGRPPRLPRPRPRPLSSPRP,0.598
23,RRIRPRPPRLPRPRPRPRTAPRP,0.562
24,RRIRIRPPRLPRPRPRPIHSPRP,-0.302
25,RRIRLRPPRLPRPRPRPRVVPRP,-0.0437

row,Sequence,shrunken log2 fold change
1,RRIRLRPPRLPRPRPRPVIKPRP,-0.111
2,RRIRCRPPRLPRPRPRPMMWPRP,-0.137
3,RRIRYRPPRLPRPRPRPQREPRP,-0.00996
4,RRIRHRPPRLPRPRPRPHRQPRP,-0.0335
5,RRIRWRPPRLPRPRPRPRSYPRP,-0.0435
6,RRIRPRPPRLPRPRPRPAMKPRP,0.162
7,RRIRPRPPRLPRPRPRPMVKPRP,-0.154
8,RRIRFRPPRLPRPRPRPFETPRP,-0.158
9,RRIRERPPRLPRPRPRPVNVPRP,-0.531
10,RRIRDRPPRLPRPRPRPEGIPRP,-0.0215
11,RRIRQRPPRLPRPRPRPKISPRP,-0.144
12,RRIRCRPPRLPRPRPRPENLPRP,-0.0208
13,RRIRQRPPRLPRPRPRPNVMPRP,-0.254
14,RRIRNRPPRLPRPRPRPQAMPRP,-0.0233
15,RRIRRRPPRLPRPRPRPKDFPRP,-0.123
16,RRIRDRPPRLPRPRPRPNDSPRP,-0.134
17,RRIRMRPPRLPRPRPRPFRWPRP,-0.0454
18,RRIRWRPPRLPRPRPRPRTAPRP,0.564
19,RRIRPRPPRLPRPRPRPLRYPRP,0.17
20,RRIRYRPPRLPRPRPRPSAPPRP,-0.353
21,RRIRHRPPRLPRPRPRPDLCPRP,0.00487
22,RRIRYRPPRLPRPRPRPPDAPRP,0.0465
23,RRIRNRPPRLPRPRPRPWSFPRP,-0.538
24,RRIRHRPPRLPRPRPRPFNLPRP,-0.189
25,RRIRQRPPRLPRPRPRPIPVPRP,-0.221

row,Sequence,shrunken log2 fold change
1,RRIRWRPPRLPRPRPRPTHCPRP,0.213
2,RRIRMRPPRLPRPRPRPEVMPRP,2.84
3,RRIRLRPPRLPRPRPRPDSWPRP,-0.139
4,RRIRKRPPRLPRPRPRPDIMPRP,1.57
5,RRIRERPPRLPRPRPRPTWSPRP,-0.268
6,RRIRFRPPRLPRPRPRPYSLPRP,-0.00881
7,RRIRKRPPRLPRPRPRPMSPPRP,-0.0332
8,RRIRKRPPRLPRPRPRPMRVPRP,0.848
9,RRIRRRPPRLPRPRPRPHGRPRP,0.0549
10,RRIRIRPPRLPRPRPRPDRYPRP,-0.032
11,RRIRPRPPRLPRPRPRPRPQPRP,0.634
12,RRIRPRPPRLPRPRPRPWVKPRP,-0.0754
13,RRIRLRPPRLPRPRPRPDYGPRP,-0.23
14,RRIRGRPPRLPRPRPRPSVYPRP,0.286
15,RRIRRRPPRLPRPRPRPSAMPRP,0.378
16,RRIRARPPRLPRPRPRPNIFPRP,0.0429
17,RRIRFRPPRLPRPRPRPDTAPRP,-0.22
18,RRIRHRPPRLPRPRPRPCSCPRP,-0.0391
19,RRIRERPPRLPRPRPRPISKPRP,-0.575
20,RRIRLRPPRLPRPRPRPMMWPRP,0.148
21,RRIRWRPPRLPRPRPRPEHQPRP,0.263
22,RRIRSRPPRLPRPRPRPADMPRP,0.0296
23,RRIRCRPPRLPRPRPRPLNFPRP,-0.0754
24,RRIRMRPPRLPRPRPRPPFMPRP,0.296
25,RRIRERPPRLPRPRPRPYTLPRP,-0.338

row,Sequence,shrunken log2 fold change
1,RRIRPRPPRLPRPRPRPAFWPRP,0.459
2,RRIRWRPPRLPRPRPRPQLEPRP,0.0296
3,RRIRFRPPRLPRPRPRPHTGPRP,-0.411
4,RRIRCRPPRLPRPRPRPMTNPRP,-0.434
5,RRIRDRPPRLPRPRPRPRNWPRP,0.615
6,RRIRWRPPRLPRPRPRPSPVPRP,-0.0363
7,RRIRYRPPRLPRPRPRPPMIPRP,-1.39
8,RRIRRRPPRLPRPRPRPKFLPRP,0.133
9,RRIRKRPPRLPRPRPRPYQKPRP,-0.00762
10,RRIRERPPRLPRPRPRPTQFPRP,-0.118
11,RRIRERPPRLPRPRPRPAGKPRP,-0.0958
12,RRIRERPPRLPRPRPRPLDWPRP,-0.0749
13,RRIRRRPPRLPRPRPRPDWVPRP,0.037
14,RRIRKRPPRLPRPRPRPPFGPRP,0.715
15,RRIRNRPPRLPRPRPRPLVHPRP,0.0443
16,RRIRRRPPRLPRPRPRPLELPRP,0.199
17,RRIRARPPRLPRPRPRPALRPRP,0.363
18,RRIRCRPPRLPRPRPRPVHAPRP,0.065
19,RRIRYRPPRLPRPRPRPHRRPRP,-0.0466
20,RRIRFRPPRLPRPRPRPRLIPRP,-0.261
21,RRIRFRPPRLPRPRPRPGHDPRP,0.062
22,RRIRYRPPRLPRPRPRPLTDPRP,-0.134
23,RRIRDRPPRLPRPRPRPRTQPRP,0.168
24,RRIRIRPPRLPRPRPRPVPMPRP,-0.143
25,RRIRARPPRLPRPRPRPTWIPRP,0.291

row,Sequence,shrunken log2 fold change
1,RRIRSRPPRLPRPRPRPRNSPRP,-0.264
2,RRIRCRPPRLPRPRPRPCVGPRP,-0.0691
3,RRIRDRPPRLPRPRPRPGPHPRP,0.132
4,RRIRCRPPRLPRPRPRPGINPRP,-0.31
5,RRIRVRPPRLPRPRPRPEAEPRP,0.807
6,RRIRPRPPRLPRPRPRPTLGPRP,0.564
7,RRIRVRPPRLPRPRPRPRWEPRP,0.329
8,RRIRTRPPRLPRPRPRPVRSPRP,0.641
9,RRIRNRPPRLPRPRPRPIINPRP,-0.265
10,RRIRARPPRLPRPRPRPEYQPRP,0.118
11,RRIRKRPPRLPRPRPRPARHPRP,1.9
12,RRIRHRPPRLPRPRPRPPIYPRP,-0.204
13,RRIRIRPPRLPRPRPRPQQRPRP,-0.104
14,RRIRYRPPRLPRPRPRPFVMPRP,-1.07
15,RRIRMRPPRLPRPRPRPASHPRP,0.343
16,RRIRMRPPRLPRPRPRPRHYPRP,-0.0487
17,RRIRWRPPRLPRPRPRPFPTPRP,-0.12
18,RRIRDRPPRLPRPRPRPSTRPRP,0.152
19,RRIRGRPPRLPRPRPRPINGPRP,0.1
20,RRIRRRPPRLPRPRPRPWFTPRP,0.0255
21,RRIRMRPPRLPRPRPRPMCYPRP,0.0406
22,RRIRKRPPRLPRPRPRPFPGPRP,-0.0018
23,RRIRLRPPRLPRPRPRPAEQPRP,0.0174
24,RRIRYRPPRLPRPRPRPFAYPRP,-0.00131
25,RRIRCRPPRLPRPRPRPLNTPRP,-0.343

row,Sequence,shrunken log2 fold change
1,RRIRNRPPRLPRPRPRPTLLPRP,-0.168
2,RRIRIRPPRLPRPRPRPYTRPRP,-0.353
3,RRIRPRPPRLPRPRPRPVILPRP,-0.26
4,RRIRTRPPRLPRPRPRPFQVPRP,-0.0305
5,RRIRCRPPRLPRPRPRPFGLPRP,-0.0423
6,RRIRERPPRLPRPRPRPMYEPRP,-0.00246
7,RRIRHRPPRLPRPRPRPHDNPRP,-0.483
8,RRIRQRPPRLPRPRPRPCLEPRP,0.0782
9,RRIRCRPPRLPRPRPRPEWAPRP,0.292
10,RRIRYRPPRLPRPRPRPDYYPRP,-0.00141
11,RRIRERPPRLPRPRPRPLKDPRP,-0.0646
12,RRIRFRPPRLPRPRPRPSRWPRP,0.29
13,RRIRIRPPRLPRPRPRPICWPRP,0.307
14,RRIRQRPPRLPRPRPRPSDCPRP,-0.756
15,RRIRWRPPRLPRPRPRPDQDPRP,-0.0971
16,RRIRKRPPRLPRPRPRPPTQPRP,0.301
17,RRIRNRPPRLPRPRPRPNMDPRP,-0.0443
18,RRIRKRPPRLPRPRPRPCGTPRP,-0.0177
19,RRIRDRPPRLPRPRPRPYEMPRP,-0.000896
20,RRIRGRPPRLPRPRPRPIKLPRP,0.125
21,RRIRDRPPRLPRPRPRPLSSPRP,0.184
22,RRIRVRPPRLPRPRPRPIIWPRP,-0.098
23,RRIRIRPPRLPRPRPRPFRNPRP,-0.902
24,RRIRNRPPRLPRPRPRPQGFPRP,-0.00956
25,RRIRHRPPRLPRPRPRPCSTPRP,-0.337
